# Substitutions are numbered along the chain they refer to. Read-outs that look alike come from different tables or passages of the source.
# B1: 51C10-M1 (antibody, human IgG1, kappa, V domains shown)
# VH: EVQLQQSGPELVKPGASVKMSCKASGYTFTDYNMHWVKKSHGKSLEWIGYVNPNNAATSYNQKFKGKATLTVNKSSSTAYMELRSLTSEDSAVYNCARWDGYVYYYGLDYWGQGTSVTVSS
# VL: DIQMTQSSSYLSVSLGGRVTITCKASDHINNWLAWYQQKPGNAPRLLISGATSLETGVPSRFSGSGSGKDYTLSITSLQTEDVATYYCQQYWSTPYTFGGGTKLEIKR
# notes: 51C10H4 with G of NG in heavy-chain CDR2 changed to A; also called improved antibody 51C10-M1
# B2: RecA101 (antibody, human IgG1, kappa, V domains shown)
# VH: B1 VH with A56G
# VL: B1 VL with S93N
# notes: heavy chain of 51C10H4 with light chain of 54B5A7; IgG1; also called improved chimeric monoclonal antibody RecA101; recombined chimeric monoclonal antibody RecA101
# B3: 54B5A7 (antibody, human IgG1, kappa, V domains shown)
# VH: B1 VH with V51I, A56G, S59N, L108M
# VL: B1 VL with S93N
# notes: chimeric IgG1
# B4: 20A3-M2 (antibody, human IgG1, kappa, V domains shown)
# VH: QAYLQQSGAELVRSGASVKMSCKASGYTFTSYNMHWVKQTPGQGLEWIGYIYPGNQGTNYNQKFKGKATLTADTSSSTAYMQISSLTSEDSAVYFCARWKYYDKTTHYALDYWGQGTLVTVSS
# VL: DIVLTQSPASLAVSLGQWATISCRASKSVSTSGYSYIHWHQQKPGQPPKLLIYLASNLESGVPARFSGSGSGTDFTLNIHPVEEEDAATYYCHHSRELPFTFGSGTKLEIKR
# notes: 20A3-2A7 with G of NG in heavy-chain CDR2 changed to Q; also called improved antibody 20A3-M2
# B5: 20A3-M1 (antibody, human IgG1, kappa, V domains shown)
# VH: B4 VH with Q56A
# VL: B4 VL
# notes: 20A3-2A7 with G of NG in heavy-chain CDR2 changed to A; also called improved antibody 20A3-M1
# B6: PiH1004 (antibody, human IgG1, kappa, V domains shown)
# VH: QVQLVQSGAEVKKPGASVKVSCKASGYTFTDYNMHWVRQAPGQSLEWIGYVNPNNGATSYNQKFKGRATMTVDKSTSTVYMELSSLRSEDTAVYNCARWDGYVYYYGLDYWGQGTLVTVSS
# VL: DIQMTQSPSSLSASVGDRVTITCKASDHINNWLAWYQQKPGKVPKLLISGATSLETGVPSRFSGSGSGTDYTLTISSLQPEDVATYYCQQYWSTPYTFGGGTKLEIKR
# notes: humanized from 51C10H4; IgG1; also called 51-VH4 + VL3
# B7: PiH2006 (antibody, human IgG1, kappa, V domains shown)
# VH: B6 VH with S44R, V51I, S59N, A68V, M70I, K74T, T76A, V79A, L108M
# VL: B6 VL with D17G, V43A, L73F, V83I, S93N
# notes: humanized from 54B5A7; IgG1; also called 54-VH2 + VL4
# B8: PiH1004-M1 (antibody, human IgG1, kappa, V domains shown)
# VH: B6 VH with G56A
# VL: B6 VL
# notes: PiH1004 with G of NG in heavy-chain CDR2 changed to A; also called improved antibody PiH1004-M1
# B9: PiH2007 (antibody, human IgG1, kappa, V domains shown)
# VH: B6 VH with V51I, S59N, M70I, K74T, T76A, V79A, L108M
# VL: B6 VL with D17G, V43A, L73F, V83I, S93N
# notes: humanized from 54B5A7; IgG1; also called 54-VH3 + VL4
# What was measured:
# human CLDN6 [1] = biological target: T1, human CLDN6 (human, UniProt P56747 1-220); assay: FACS on 293T-CLDN6 cells, 10 µg/mL
# T1 construct: whole, on cells; four-transmembrane protein; also called claudin-6; HEK293T-CLDN6
# T1 sequence (looked up): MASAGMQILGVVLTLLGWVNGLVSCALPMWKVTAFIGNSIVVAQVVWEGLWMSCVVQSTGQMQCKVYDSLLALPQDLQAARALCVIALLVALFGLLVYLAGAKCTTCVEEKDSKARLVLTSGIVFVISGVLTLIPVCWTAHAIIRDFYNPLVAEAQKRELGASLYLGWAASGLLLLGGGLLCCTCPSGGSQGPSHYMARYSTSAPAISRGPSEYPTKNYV
# human CLDN9 [2] = biological target: T2, human CLDN9 (human, UniProt O95484 1-217); assay: FACS on 293T-CLDN9 cells, 10 µg/mL
# T2 construct: whole, on cells; also called HEK293T-CLDN9
# T2 sequence (looked up): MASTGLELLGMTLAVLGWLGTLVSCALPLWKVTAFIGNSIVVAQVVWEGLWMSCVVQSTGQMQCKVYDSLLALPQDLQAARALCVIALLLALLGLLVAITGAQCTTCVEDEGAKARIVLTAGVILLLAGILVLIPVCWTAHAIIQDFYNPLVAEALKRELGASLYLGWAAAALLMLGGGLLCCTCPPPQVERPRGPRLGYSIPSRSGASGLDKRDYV
# Description: (§1) 50 μL of an antibody to be tested was added to a 96-well plate, then 1× 10⁵ cells were added to each well, and incubation was conducted at 4° C. for 1 h. Cells were washed three times with PBS. […] Finally, cells were washed three times with PBS, and signals were read using FACS. Binding capacities of the antibody to CLDN9, CLDN3, and CLDN4 were analyzed separately based on detection data.
# human CLDN6 [3] = biological target: T1, human CLDN6; assay: FACS on HEK293T-CLDN6 cells
# Description: (§2) To detect a binding capacity of a chimeric or humanized antibody to CLDN6, a CLDN6-expressing cell line HEK293T-CLDN6 and a CLDN6-negative control cell line HEK293T were washed three times with PBS. 1×10⁵ test cells and 50 μL of an antibody solution to be tested were added to a 96-well plate, and incubated at 4° C. for 1 h. The cells were then washed three times with PBS. […] Finally, cells were washed three times with PBS, and signals were read using FACS.
# (§3) An EC50 value (a concentration of an antibody that binds to half of binding sites at equilibrium) is calculated through nonlinear regression.
# human CLDN6 [4] = biological target: T1, human CLDN6; assay: cell-based or functional assay
# human CLDN6 [5] = biological target: T1, human CLDN6; assay: cell-based or functional assay; remark: listed apart in the source
# human CLDN6 [6] = biological target: T1, human CLDN6; assay: FACS on HEK293T-CLDN6 cells; remark: listed apart in the source
# Description: as §2, §3
# human CLDN6 [7] = biological target: T1, human CLDN6; assay: FACS on HEK293T-CLDN6 cells; remark: listed apart in the source
# Description: as §2, §3
# [8] = biological target: T3, monkey CLDN6 (Cyno CLDN6) (monkey (Cyno)); assay: FACS on CHO-K1-Cyno CLDN6 cells
# T3 construct: whole, on cells; also called CHO-K1-Cyno CLDN6
# mouse CLDN6 = biological target: T4, mouse CLDN6 (mouse, UniProt Q9Z262 1-219); assay: FACS on CHO-K1-Mouse CLDN6 cells
# T4 construct: whole, on cells; also called CHO-K1-Mouse CLDN6
# T4 sequence (looked up): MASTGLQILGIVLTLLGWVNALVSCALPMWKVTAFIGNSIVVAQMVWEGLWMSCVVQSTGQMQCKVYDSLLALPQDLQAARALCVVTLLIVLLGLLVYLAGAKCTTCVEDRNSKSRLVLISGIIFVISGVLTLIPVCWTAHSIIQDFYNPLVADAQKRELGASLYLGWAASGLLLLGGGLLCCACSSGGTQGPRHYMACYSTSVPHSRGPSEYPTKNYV
# human CLDN3 = biological target: T5, human CLDN3 (human, UniProt O15551 1-220); assay: FACS on 293T-CLDN3 cells, 10 µg/mL
# T5 construct: whole, on cells; also called HEK293T-CLDN3
# T5 sequence (looked up): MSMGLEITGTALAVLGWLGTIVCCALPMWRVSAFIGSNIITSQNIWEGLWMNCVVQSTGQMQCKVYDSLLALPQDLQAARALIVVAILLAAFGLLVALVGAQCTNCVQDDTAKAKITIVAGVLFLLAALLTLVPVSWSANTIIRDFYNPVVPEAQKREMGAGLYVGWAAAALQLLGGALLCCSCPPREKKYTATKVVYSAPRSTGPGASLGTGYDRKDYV
# Description: as §1
# human CLDN4 = biological target: T6, human CLDN4 (human, UniProt O14493 1-209); assay: FACS on 293T-CLDN4 cells, 10 µg/mL
# T6 construct: whole, on cells; also called HEK293T-CLDN4
# T6 sequence (looked up): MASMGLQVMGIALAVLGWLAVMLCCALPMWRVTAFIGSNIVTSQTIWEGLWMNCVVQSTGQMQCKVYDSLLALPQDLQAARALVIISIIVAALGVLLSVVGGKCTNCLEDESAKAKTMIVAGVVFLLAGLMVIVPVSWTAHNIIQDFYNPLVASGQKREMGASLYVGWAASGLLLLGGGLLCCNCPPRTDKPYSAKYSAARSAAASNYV
# Description: as §1
# human CLDN6 [9] = biological target: T1, human CLDN6; assay: FACS on 293T-CLDN6 cells, 10 µg/mL; remark: listed apart in the source
# human CLDN9 [10] = biological target: T2, human CLDN9; assay: FACS on 293T-CLDN9 cells, 10 µg/mL; remark: listed apart in the source
# Description: as §1
# human CLDN6 [11] = biological target: T1, human CLDN6; assay: ratio of FACS signals on CLDN6 cells over CLDN9 cells
# Description: as §1
# human CLDN6 [12] = biological target: T1, human CLDN6; assay: FACS on PA-1 tumour cells; target on the cells taken as CLDN6
# Description: (§4) The specific binding of a chimeric antibody to a tumor cell was detected by FACS, and an EC50 value was calculated accordingly to evaluate an inhibitory effect of the chimeric antibody on the tumor cell.
# (§5) 50 μL of an antibody to be tested was added to a 96-well plate, then 1×10⁵ cells were added to each well, and incubation was conducted at 4° C. for 1 h. Cells were washed three times with PBS. […] Finally, cells were washed three times with PBS, and signals were read using FACS. A binding capacity of the antibody to each tumor cell was analyzed based on detection data.
# human CLDN6 [13] = biological target: T1, human CLDN6; assay: as above; remark: listed apart in the source
# Description: as §5
# human CLDN6 [14] = biological target: T1, human CLDN6; assay: FACS on HepG2 tumour cells; target on the cells taken as CLDN6
# Description: as §4, §5
# human CLDN6 [15] = biological target: T1, human CLDN6; assay: as above; remark: listed apart in the source
# Description: as §5
# human CLDN6 [16] = biological target: T1, human CLDN6; assay: as above; remark: listed apart in the source
# Description: as §5
# human CLDN6 [17] = biological target: T1, human CLDN6; assay: ratio of FACS Geom.Mean on 293T-CLDN6 over 293T-CLDN9, 10 µg/mL
# Description: as §1
# human CLDN6 [18] = biological target: T1, human CLDN6; assay: FACS on 293T-CLDN6 cells, 10 µg/mL; remark: listed apart in the source
# human CLDN9 [19] = biological target: T2, human CLDN9; assay: FACS on 293T-CLDN9 cells, 10 µg/mL; remark: listed apart in the source
# Description: as §1
# human CLDN6 [20] = biological target: T1, human CLDN6; assay: FACS on HEK293T-CLDN6 cells; remark: listed apart in the source
# Description: as §2, §3
# human CLDN6 [21] = biological target: T1, human CLDN6; assay: FACS on PA-1 tumour cells; target on the cells taken as CLDN6; remark: listed apart in the source
# Description: as §5
# human CLDN6 [22] = biological target: T1, human CLDN6; assay: FACS on HepG2 tumour cells; target on the cells taken as CLDN6; remark: listed apart in the source
# Description: as §5
# human CLDN6 [23] = biological target: T1, human CLDN6; assay: FACS on HepG2 tumour cells, 5 µg/mL; target on the cells taken as CLDN6
# Description: as §5
binder,measurement,setting,value
B1,Geom.Mean,human CLDN6 [1],41400
same,Geom.Mean,human CLDN9 [2],1170
B2,EC50,human CLDN6 [3],0.73 µg/mL
same,Geom.Mean,human CLDN6 [1],41800
same,Geom.Mean,human CLDN9 [2],1740
B3,ADCC dose-response fit: EC50,human CLDN6 [4],0.0413 µg/mL
same,ADCC dose-response fit: LogEC50,human CLDN6 [4],-1.39
same,CDC dose-response fit: EC50,human CLDN6 [5],0.252 µg/mL
same,CDC dose-response fit: LogEC50,human CLDN6 [5],-0.6
same,EC50,human CLDN6 [6],0.352 µg/mL
same,EC50,human CLDN6 [7],0.285 µg/mL
same,EC50,[8],0.78 µg/mL
same,EC50,mouse CLDN6,1.5 µg/mL
same,Geom.Mean,human CLDN3,101
same,Geom.Mean,human CLDN4,104
same,Geom.Mean,human CLDN6 [9],37500
same,Geom.Mean,human CLDN9 [10],141
same,CLDN6/CLDN9 signal ratio,human CLDN6 [11],~200 fold
same,EC50,human CLDN6 [12],0.64 µg/mL
same,EC50,human CLDN6 [13],0.415 µg/mL
same,EC50,human CLDN6 [14],0.449 µg/mL
same,EC50,human CLDN6 [15],0.47 µg/mL
same,EC50,human CLDN6 [16],0.552 µg/mL
same,CLDN6/CLDN9 ratio,human CLDN6 [17],265
B4,Geom.Mean,human CLDN6 [18],34000
same,Geom.Mean,human CLDN9 [19],297
B5,Geom.Mean,human CLDN6 [18],40200
same,Geom.Mean,human CLDN9 [19],243
B6,EC50,human CLDN6 [20],0.363 µg/mL
same,EC50,human CLDN6 [21],0.491 µg/mL
same,EC50,human CLDN6 [22],0.843 µg/mL
same,Geom.Mean,human CLDN6 [23],851
B7,EC50,human CLDN6 [15],5.84 µg/mL
B8,Geom.Mean,human CLDN6 [23],892
B9,EC50,human CLDN6 [7],0.897 µg/mL
same,EC50,human CLDN6 [13],1.17 µg/mL

# — patent publication US20260139049A1 (PEDIATRIC IMMUNITY AND HEALTHCARE GUANGZHOU BIOTECHNOLOGY, published 2026)
